B1: TandAbCD16A 1 (anti-HLA-A2^MMP1-003/CD16A tandem diabody, target domain A02, variant 2) (bispecific antibody)
chain: QVQLVQSGAEVKKPGESLKVSCKASGYTFTSYYMHWVRQAPGQGLEWMGAIEPMYGSTSYAQKFQGRVTMTRDTSTSTVYMELSSLRSEDTAVYYCARGSAYYYDFADYWGQGTLVTVSSGGSGGSGGSSYELTQPPSVSVSPGQTASITCSGDKLGDKYASWYQRKPGQSPVLLIYQDAKRPSGIPERFSGSNSGNTATLTISGTQAMDEADYYCQAWDSSTGVFGGGTKLTVLGGSGGSEVQLVESGGGVVQPGRSLRLSCAASGFTFSSYAMHWVRQAPGKGLEWVAVISYDGSNKYYADSVKGRFTISRDNSKNTLYLQMNSLRTEDTAVYYCARDGGYYHYGLDVWGQGTTVTVSSGGSGGSGGSSYVLTQPSSVSVAPGQTATISCGGHNIGSKNVHWYQQRPGQSPVLVIYQDNKRPSGIPERFSGSNSGNTATLTISGTQAMDEADYYCQVWDNYSVLFGGGTKLTVLAAAGSHHHHHH
notes: Non-covalent homodimer; Variant 2: VH(CD16A)-L1-VL(A02)-L2-VH(A02)-L3-VL(CD16A); C-terminal 6xHis tag
B2: scFv A02 (anti-HLA-A2^MMP1-003 single chain Fv) (scFv)
scFv: EVQLVESGGGVVQPGRSLRLSCAASGFTFSSYAMHWVRQAPGKGLEWVAVISYDGSNKYYADSVKGRFTISRDNSKNTLYLQMNSLRTEDTAVYYCARDGGYYHYGLDVWGQGTTVTVSSGGSGGSGGSGGSGGSGGSSYELTQPPSVSVSPGQTASITCSGDKLGDKYASWYQRKPGQSPVLLIYQDAKRPSGIPERFSGSNSGNTATLTISGTQAMDEADYYCQAWDSSTGVFGGGTKLTVLAAAGSEQKLISEEDLNSHHHHHH
notes: also called A02 scFv; scFv_203.S
B3: TandAbCD3 1 (anti-HLA-A2^MMP1-003/CD3 tandem diabody, target domain B05) (bispecific antibody)
chain: DIQMTQSPSSLSASVGDRVTITCRSSTGAVTTSNYANWVQQKPGKAPKALIGGTNKRAPGVPSRFSGSLIGDKATLTISSLQPEDFATYYCALWYSNLWVFGQGTKVEIKGGSGGSQVQLVQSGAEAKKPGESLRISCRASGYMFSTFWIGWVRQMPGKGLEWVASIYPGDSNTIYSPSFQGQVTISADKSINTTYLQWSGLKASDTATYYCAKIRDGYSYDAFDLWGQGTMVTVSSGGSGQSALTQPASVSGSPGQSITISCTGTSSDVGGYNYVSWYQQHPGKAPKLMIYDVSNRPSGVSNRFSGSKSGNTASLTISGLQAEDEADYYCSSYTSSSTLAYVFGTGTKLTVLGGSGGSEVQLVESGGGLVQPGGSLRLSCAASGFTFSTYAMNWVRQAPGKGLEWVGRIRSKYNNYATYYADSVKDRFTISRDDSKNSLYLQMNSLKTEDTAVYYCARHGNFGNSYVSYFAYWGQGTLVTVSSAAAGSHHHHHH
notes: Non-covalent homodimer of two identical polypeptides; Constructs carry a C-terminal 6xHis tag and an N-terminal signal peptide; also called TandAbCD3 1 T714; TandAb 1
B4: TandAbCD16A 3 (anti-HLA-A2^MMP1-003/CD16A tandem diabody, target domain A02, variant 4) (bispecific antibody)
chain: EVQLVESGGGVVQPGRSLRLSCAASGFTFSSYAMHWVRQAPGKGLEWVAVISYDGSNKYYADSVKGRFTISRDNSKNTLYLQMNSLRTEDTAVYYCARDGGYYHYGLDVWGQGTTVTVSSGGSGGSGGSSYVLTQPSSVSVAPGQTATISCGGHNIGSKNVHWYQQRPGQSPVLVIYQDNKRPSGIPERFSGSNSGNTATLTISGTQAMDEADYYCQVWDNYSVLFGGGTKLTVLGGSGGSQVQLVQSGAEVKKPGESLKVSCKASGYTFTSYYMHWVRQAPGQGLEWMGAIEPMYGSTSYAQKFQGRVTMTRDTSTSTVYMELSSLRSEDTAVYYCARGSAYYYDFADYWGQGTLVTVSSGGSGGSGGSSYELTQPPSVSVSPGQTASITCSGDKLGDKYASWYQRKPGQSPVLLIYQDAKRPSGIPERFSGSNSGNTATLTISGTQAMDEADYYCQAWDSSTGVFGGGTKLTVLAAAGSHHHHHH
notes: Non-covalent homodimer; Variant 4: VH(A02)-L1-VL(CD16A)-L2-VH(CD16A)-L3-VL(A02); C-terminal 6xHis tag
B5: TandAbCD16A 2 (anti-HLA-A2^MMP1-003/CD16A tandem diabody, target domain B05, variant 2) (bispecific antibody)
chain: QVQLVQSGAEVKKPGESLKVSCKASGYTFTSYYMHWVRQAPGQGLEWMGAIEPMYGSTSYAQKFQGRVTMTRDTSTSTVYMELSSLRSEDTAVYYCARGSAYYYDFADYWGQGTLVTVSSGGSGGSGGSQSALTQPASVSGSPGQSITISCTGTSSDVGGYNYVSWYQQHPGKAPKLMIYDVSNRPSGVSNRFSGSKSGNTASLTISGLQAEDEADYYCSSYTSSSTLAYVFGTGTKLTVLGGSGGSQVQLVQSGAEAKKPGESLRISCRASGYMFSTFWIGWVRQMPGKGLEWVASIYPGDSNTIYSPSFQGQVTISADKSINTTYLQWSGLKASDTATYYCAKIRDGYSYDAFDLWGQGTMVTVSSGGSGGSGGSSYVLTQPSSVSVAPGQTATISCGGHNIGSKNVHWYQQRPGQSPVLVIYQDNKRPSGIPERFSGSNSGNTATLTISGTQAMDEADYYCQVWDNYSVLFGGGTKLTVLAAAGSHHHHHH
notes: Non-covalent homodimer; C-terminal 6xHis tag
B6: scFv B05 (anti-HLA-A2^MMP1-003 single chain Fv) (scFv)
scFv: QVQLVQSGAEAKKPGESLRISCRASGYMFSTFWIGWVRQMPGKGLEWVASIYPGDSNTIYSPSFQGQVTISADKSINTTYLQWSGLKASDTATYYCAKIRDGYSYDAFDLWGQGTMVTVSSGGSGGSGGSGGSGGSGGSQSALTQPASVSGSPGQSITISCTGTSSDVGGYNYVSWYQQHPGKAPKLMIYDVSNRPSGVSNRFSGSKSGNTASLTISGLQAEDEADYYCSSYTSSSTLAYVFGTGTKLTVLAAAGSEQKLISEEDLNSHHHHHH
notes: also called B05 scFv; scFv_202.S
B7: TandAbCD16A 4 (anti-HLA-A2^MMP1-003/CD16A tandem diabody, target domain B05, variant 4) (bispecific antibody)
chain: QVQLVQSGAEAKKPGESLRISCRASGYMFSTFWIGWVRQMPGKGLEWVASIYPGDSNTIYSPSFQGQVTISADKSINTTYLQWSGLKASDTATYYCAKIRDGYSYDAFDLWGQGTMVTVSSGGSGGSGGSSYVLTQPSSVSVAPGQTATISCGGHNIGSKNVHWYQQRPGQSPVLVIYQDNKRPSGIPERFSGSNSGNTATLTISGTQAMDEADYYCQVWDNYSVLFGGGTKLTVLGGSGGSQVQLVQSGAEVKKPGESLKVSCKASGYTFTSYYMHWVRQAPGQGLEWMGAIEPMYGSTSYAQKFQGRVTMTRDTSTSTVYMELSSLRSEDTAVYYCARGSAYYYDFADYWGQGTLVTVSSGGSGGSGGSQSALTQPASVSGSPGQSITISCTGTSSDVGGYNYVSWYQQHPGKAPKLMIYDVSNRPSGVSNRFSGSKSGNTASLTISGLQAEDEADYYCSSYTSSSTLAYVFGTGTKLTVLAAAGSHHHHHH
notes: as for B5

What was measured:
[1] = molecular target: T1, MMP1-003 peptide/HLA-A2 complex (on MMP1-003 peptide-pulsed T2 cells or HLA-A2+/MMP1+ tumor cells) (human); test: cell-based or functional assay
[2] = molecular target: T1, MMP1-003 peptide/HLA-A2 complex (on …); test: cell-based or functional assay; remark: listed apart in the source
[3] = molecular target: T2, CD16A (FcgammaRIIIA) on primary human NK-cells (human, UniProt P08637 17-254); test: flow cytometry on primary human NK-cells, on ice, one-site binding fit, mean of two experiments
T2 construct: whole, on cells; also called CD16^+ NK-cells; CD16A^+ cells

[4] = molecular target: T3, human CD3 (on Jurkat cells or primary human T-cells) (human, UniProt P07766 23-207); test: flow cytometry on human CD3+ Jurkat cells, on ice
T3 construct: whole, on cells; CD3 is a complex of several chains; also called Human CD3^+ Jurkat; Human CD3^+ primary T-cells

[5] = molecular target: T4, cynomolgus CD3 (on HSC-F cells) (cynomolgus, UniProt Q95LI5 22-198); test: flow cytometry on cynomolgus CD3+ HSC-F cells, on ice
T4 construct: whole, on cells; CD3 is a complex of several chains; also called Cyno CD3^+ HSC-F

[6] = molecular target: T1, MMP1-003 peptide/HLA-A2 complex (on …); test: flow cytometry on MMP1-003 peptide-pulsed T2 cells, mean of two experiments
[7] = molecular target: T1, MMP1-003 peptide/HLA-A2 complex (on …); test: cell-based or functional assay; remark: listed apart in the source
[8] = molecular target: T1, MMP1-003 peptide/HLA-A2 complex (on …); test: cell-based or functional assay; remark: listed apart in the source
[9] = molecular target: T1, MMP1-003 peptide/HLA-A2 complex (on …); test: flow cytometry on MMP1-003 peptide-pulsed T2 cells
[10] = molecular target: T3, human CD3 (on Jurkat cells or primary …); test: flow cytometry on human CD3+ Jurkat cells, on ice, one-site binding fit, mean of 2 experiments
[11] = molecular target: T3, human CD3 (on Jurkat cells or primary …); test: flow cytometry on human CD3+ primary T-cells, on ice, one-site binding fit, mean of 2 experiments
[12] = molecular target: T4, cynomolgus CD3 (on HSC-F cells); test: flow cytometry on cynomolgus CD3+ HSC-F cells, on ice, one-site binding fit, mean of 2 experiments

T3 sequence (P07766 23-207): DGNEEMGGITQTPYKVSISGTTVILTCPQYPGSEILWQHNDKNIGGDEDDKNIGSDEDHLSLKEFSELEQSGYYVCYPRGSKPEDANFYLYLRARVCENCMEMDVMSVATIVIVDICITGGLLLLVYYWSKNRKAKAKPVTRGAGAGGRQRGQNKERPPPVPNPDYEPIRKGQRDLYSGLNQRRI
T4 sequence (Q95LI5 22-198): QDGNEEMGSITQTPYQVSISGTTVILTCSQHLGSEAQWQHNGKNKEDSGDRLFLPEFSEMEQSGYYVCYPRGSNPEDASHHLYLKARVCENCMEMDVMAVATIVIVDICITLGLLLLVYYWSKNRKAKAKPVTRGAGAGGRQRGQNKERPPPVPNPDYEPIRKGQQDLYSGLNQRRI
T2 sequence (P08637 17-254): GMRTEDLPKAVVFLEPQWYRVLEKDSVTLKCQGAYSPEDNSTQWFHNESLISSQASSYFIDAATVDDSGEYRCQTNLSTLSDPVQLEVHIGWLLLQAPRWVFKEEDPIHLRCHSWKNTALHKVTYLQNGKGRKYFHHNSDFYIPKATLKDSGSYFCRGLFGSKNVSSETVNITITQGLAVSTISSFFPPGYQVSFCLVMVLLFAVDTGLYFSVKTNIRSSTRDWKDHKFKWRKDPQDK

Binder	Mean EC50 of target cell lysis, 4 h calcein-release assay, MMP1-003-pulsed T2 cells, human NK-cells E:T 5:1 [1]	Mean EC50 of target cell lysis, 4 h calcein-release assay, B-CPAP (HLA-A2+/MMP1+), human NK-cells E:T 5:1 [2]	Mean EC50 of target cell lysis, 4 h calcein-release assay, SW-982 (HLA-A2+/MMP1+), human NK-cells E:T 5:1 [2]	Kd [3]	Kd [6]	also measured
B1	0.0147 nM	2.61 nM	4.29 nM	5.1 nM		
B2					108 nM	binding result [4]: no binding; binding result [5]: no binding
B3					3 nM	EC50 of target cell lysis, 4 h calcein-release cytotoxicity assay, MMP1-003-pulsed T2 cells, human T-cells E:T 25:1 [7]: 0.0007 nM; Mean EC50 of target cell lysis, 4 h calcein-release assay, B-CPAP (HLA-A2+/MMP1+), human T-cells E:T 25:1 [8]: 0.237 nM; Mean EC50 of target cell lysis, 4 h calcein-release assay, SW-982 (HLA-A2+/MMP1+), human T-cells E:T 25:1 [8]: 0.156 nM; fold higher apparent affinity relative to the B05 single chain Fv (scFv) [9]: > 200 fold; Kd [10]: 1.1 nM; Kd [11]: 1.7 nM; Kd [12]: 1.3 nM
B4	0.0057 nM	0.996 nM	1.16 nM	3.1 nM		
B5	0.0209 nM	1.69 nM	2.86 nM	3.7 nM		
B6					616 nM	binding result [4]: no binding; binding result [5]: no binding
B7	0.0088 nM	4.8 nM	4.67 nM	5.3 nM		

Source: patent EP3366704A1 (Affimed GmbH, dated 2018)
